Test system: MS2 coat protein
Test: apparent KD of MS2 coat protein; designed switch direction (-1 OFF switch, 1 ON switch): -1; higher = weaker reporter binding
Method in brief: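 On Illumina chips, designed RNA switches with common flanks were made by stalled E. coli RNA polymerase. Titrations with SNAP-549-labelled MS2 coat protein, doubling from 0.7 or 1.5 nM to 3 µM, were done with no input, with 200 uM small-molecule ligand, or with an oligonucleotide input. Apparent KD is the median per design over clusters, from curve fits of normalised cluster fluorescence.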

[1] = input ligand: microRNA oligo, concentration not stated
[2] = Eterna round: R95, input ligand: FMN 200 uM
[3] = Eterna round: R95, input ligand: microRNA oligo, concentration not stated
[4] = Eterna round: R95, input ligand: none

ACCAUUUCGGUGGUCUAAGAACAUGAGGAUCACCCAUGUAUCGAGGAUAUCCCAAGCAGACUAUGGGAGAAGGUGAACAGAAGG [Eternabot solution 24] (Eterna round: R96, puzzle: Exclusion NG 3)
apparent KD of MS2 coat protein (input ligand: FMN 200 uM): 40.1 nM
apparent KD of MS2 coat protein [1]: 25.6 nM
apparent KD of MS2 coat protein (input ligand: none): 41.7 nM

ACCGCCGGCGUAAGGAUAUGUGAAGAAAUCCCUUUACAGAAGGUACAUGAGGAUCACCCAUGUCUUCUAGGACG [Eternabot (L1) Solution 96] (Eterna round: R97, puzzle: Brourd's mod of Exclusion 4)
apparent KD of MS2 coat protein (input ligand: FMN 200 uM): 21.3 nM
apparent KD of MS2 coat protein (input ligand: none): 22.3 nM

ACCGUGAGGGUGAGGAUAUUCUGAGGGACGCCCUGGAAGAAGGUACAUGAGGAUCACCCAUGUGGCCUCAGACU [Eternabot (L2) Solution 99] (Eterna round: R97, puzzle: Brourd's mod of Exclusion 4)
apparent KD of MS2 coat protein (input ligand: FMN 200 uM): 35.8 nM
apparent KD of MS2 coat protein (input ligand: none): 32.4 nM

ACCUAAAAGCUAGGAUAUACAUGAGGAUCACCCAUGUACACAGGAAGACUAACCUGUGGACUCAUGUAGAAGGAGCAUGACAAA [Raengearle] (Eterna round: R96, puzzle: Exclusion NG 2)
apparent KD of MS2 coat protein (input ligand: FMN 200 uM): 117 nM
apparent KD of MS2 coat protein [1]: 349 nM
apparent KD of MS2 coat protein (input ligand: none): 283 nM

ACCUAAAAGCUAGGAUAUACAUGAGGAUCACCCAUGUACACAGGUAGACUAACCUGUGGACUCAUGUAGAAGGAGCAUGACAAA [Erongebe] (Eterna round: R96, puzzle: Exclusion NG 2)
apparent KD of MS2 coat protein (input ligand: FMN 200 uM): 111 nM
apparent KD of MS2 coat protein [1]: 240 nM
apparent KD of MS2 coat protein (input ligand: none): 363 nM

ACCUCACAUGAGGAUCACCCAUGUCAGGAUAUAAAAGGAGGGCGAGGCAGCCAGGAAGUUAGAAGGGACACGCU [EX1 B.11] (Eterna round: R97, puzzle: Exclusion 1)
apparent KD of MS2 coat protein (input ligand: FMN 200 uM): 21.2 nM
apparent KD of MS2 coat protein (input ligand: none): 23.7 nM

ACCUCACAUGAGGAUCACCCAUGUCAGGAUAUCUAAUGUAGUCGCGUUCCCGACGCUAAGAGAAGGGACGUUGA [EX1 #36] (Eterna round: R97, puzzle: Exclusion 1)
apparent KD of MS2 coat protein (input ligand: FMN 200 uM): 15.8 nM
apparent KD of MS2 coat protein (input ligand: none): 15 nM

ACCUCACAUGAGGAUCACCCAUGUCAGGAUAUCUAUUAUUGCAGCAAUCCUGUCGCUGAGAGAAGGGACAUUAA [EX1 #27] (Eterna round: R97, puzzle: Exclusion 1)
apparent KD of MS2 coat protein (input ligand: FMN 200 uM): 32.2 nM
apparent KD of MS2 coat protein (input ligand: none): 33 nM

ACCUCACAUGAGGAUCACCCAUGUCAGGAUAUCUUUUAAACCGCGAAUCGCGGCGCUGAGAGAAGGGACAUUAA [EX1 #20] (Eterna round: R97, puzzle: Exclusion 1)
apparent KD of MS2 coat protein (input ligand: FMN 200 uM): 108 nM
apparent KD of MS2 coat protein (input ligand: none): 39.4 nM

ACCUCACAUGAGGAUCACCCAUGUCAGGAUAUGUACCUGGUCUAGUCAAAGACCAGAAGCAGAAGGGACUGCGG [Ria] (puzzle: Exclusion 1)
apparent KD of MS2 coat protein [2]: 29.7 nM
apparent KD of MS2 coat protein [3]: 87.8 nM
apparent KD of MS2 coat protein [4]: 106 nM

ACCUCACAUGAGGAUCACCCAUGUCAGGAUAUUCAAACAGGCGGAACUCCGCCUUCUCGAAGAAGGGACAUUAA [Ontebileza] (Eterna round: R96, puzzle: Exclusion 1)
apparent KD of MS2 coat protein (input ligand: FMN 200 uM): 62.1 nM
apparent KD of MS2 coat protein [1]: 15.9 nM
apparent KD of MS2 coat protein (input ligand: none): 16.4 nM

ACCUCACAUGAGGAUCACCCAUGUCAGGAUAUUCAAACAGGCGGAACUCCGCCUUCUCGAAGAAGGGACAUUAA [Ontebileza] (puzzle: Exclusion 1)
apparent KD of MS2 coat protein [3]: 16.6 nM

ACCUCACAUGAGGAUCACCCAUGUUAGGAUAUCUCGAUGCUCCACGGGCGGUAGCAUCAGAGAAGGAACGUGCU [Vematior] (puzzle: Exclusion 1)
apparent KD of MS2 coat protein [3]: 19 nM

ACCUUACAUGAGGAUCACCCAUGUCAGGAUAUCUCGGGCGACCGAGGGCCGGCCGCCCAGAGAAGGGACGAGGA [Aainmaso] (puzzle: Exclusion 1)
apparent KD of MS2 coat protein [3]: 11.8 nM

ACGAAACAUGAGGAUCACCCAUGUGAGGAUAUGUAAAGACUAGACAAAGAACAGAAAAACAGAAGGCACACAGA [JR_Exclusion1_Sub002] (puzzle: Exclusion 1)
apparent KD of MS2 coat protein [2]: 28 nM
apparent KD of MS2 coat protein [3]: 19.7 nM
apparent KD of MS2 coat protein [4]: 26.7 nM

ACGAAAGCAAGCAAGUGAAACAUGAGGAUCACCCAUGUCCUCAUUUGCUCGUCUUAUAAAAGCUAUCGAAAGAUAGC [Mat - Sensor v3 - turn-off var 1 - Eli Mod - D47] (puzzle: Sensor v3, turn-off variant 1)
apparent KD of MS2 coat protein [2]: 11.9 nM
apparent KD of MS2 coat protein [3]: 157 nM
apparent KD of MS2 coat protein [4]: 13.2 nM

ACGAGGGUUACAGGAUAUGAAGCUAAAACGGCGUUAGAAGGGUAUACAGAGUUACAUGAGGAUCACCCAUGUUGUGACUUCGAA [AK ExNG1-V2-4] (Eterna round: R96, puzzle: Exclusion NG 1)
apparent KD of MS2 coat protein [1]: 29.4 nM

ACGAUGUUUGGAGGAUAUACAUGAGGAUCACCCAUGUGCGACCGAGUCCGCACUUCACCUCAGUGGUAGAAGGCCGAACAUCGA [Eternabot solution 12] (Eterna round: R96, puzzle: Exclusion NG 2)
apparent KD of MS2 coat protein (input ligand: FMN 200 uM): 97.9 nM
apparent KD of MS2 coat protein [1]: 545 nM
apparent KD of MS2 coat protein (input ligand: none): 255 nM

ACGCAGAGAGGAUAUACAUGAGGAUCACCCAUGUAUAAACGCACUAACUCUCCUCACUGUAGAAGGCUCAUGCA [Larerige] (puzzle: Exclusion 3)
apparent KD of MS2 coat protein [3]: 11.3 nM

ACGCCGCAAGGAUAUCGUAAAGCAGACAUGAGGAUCACCCAUGUGAUAUCAGAAAGGCCACGAGAAGGUGCACAAG [Tigeor] (puzzle: Exclusion 5)
apparent KD of MS2 coat protein [2]: 32.4 nM
apparent KD of MS2 coat protein [3]: 20.3 nM
apparent KD of MS2 coat protein [4]: 21.3 nM

ACGCGACAUGAGGAUCACCCAUGUGAGGAUAUGGCCUGUUUGGCGUGUGCUGGCUCUGUCAGAAGGCGCGUGGG [salish99_ex1_r4_040] (Eterna round: R97, puzzle: Exclusion 1)
apparent KD of MS2 coat protein (input ligand: FMN 200 uM): 141 nM
apparent KD of MS2 coat protein (input ligand: none): 90.4 nM

ACGCGCAUAGGAUAUGCCGACGGAGAACUCCAGUGACUUCAACAUGAGGAUCACCCAUGUAGAAGGAUGAUGCA [Eternabot (Original) Solution 32] (Eterna round: R97, puzzle: Exclusion 2)
apparent KD of MS2 coat protein (input ligand: FMN 200 uM): 16.8 nM
apparent KD of MS2 coat protein (input ligand: none): 14.8 nM

ACGCGUGAAGGAUAUACGCGGGCCCAAGCGGAUCACACCGCACAUGAGGAUCACCCAUGUAGAAGGUCACAAAA [r4x2dt1] (Eterna round: R97, puzzle: Exclusion 2)
apparent KD of MS2 coat protein (input ligand: FMN 200 uM): 169 nM
apparent KD of MS2 coat protein (input ligand: none): 23.5 nM

ACGCGUGGCUAGGAUAUGCAGCAAUCUAGCCAGGCAGAAGGAGCCACAUGAGGAUCACCCAUGUGGUGAUCCUC [eternacac ex6r4 sub2] (Eterna round: R97, puzzle: Exclusion 6)
apparent KD of MS2 coat protein (input ligand: FMN 200 uM): 8.21 nM
apparent KD of MS2 coat protein (input ligand: none): 11.2 nM

ACGCGUUUAGGAUAUACGUGCCUUGACAGUCCUAUUGUGUUACAUGAGGAUCACCCAUGUAGAAGGAGGCCGCG [Eternabot (L1) Solution 79] (Eterna round: R97, puzzle: Exclusion 2)
apparent KD of MS2 coat protein (input ligand: FMN 200 uM): 19.4 nM
apparent KD of MS2 coat protein (input ligand: none): 20.2 nM

ACGGCAUAAGGAUAUGCAAGGUGCUGACUUCCUCCGUCAUUACAUGAGGAUCACCCAUGUAGAAGGUAUGUACC [Eternabot (Original) Solution 9] (Eterna round: R97, puzzle: Exclusion 2)
apparent KD of MS2 coat protein (input ligand: FMN 200 uM): 18.4 nM
apparent KD of MS2 coat protein (input ligand: none): 18.5 nM

ACGUAUAGAGGAUAUACUGAAUAUUACAUGAGGAUCACCCAUGUUCUUCAAAGUAUAUUUGUAGAAGGCUAAUGAA [EX-5 Malc#9] (puzzle: Exclusion 5)
apparent KD of MS2 coat protein [2]: 15.8 nM
apparent KD of MS2 coat protein [3]: 10.2 nM
apparent KD of MS2 coat protein [4]: 9.61 nM

ACGUAUAGAGGAUAUAGUGAAUAUUACAUGAGGAUCACCCAUGUUCUUCAAAGUAUAUUCCUAGAAGGCUAAUGAA [EX-5 Malc#11] (puzzle: Exclusion 5)
apparent KD of MS2 coat protein [2]: 537 nM
apparent KD of MS2 coat protein [3]: 148 nM
apparent KD of MS2 coat protein [4]: 171 nM

ACGUGAUAUCUGUCGGUGGACAUGAGGAUCACCCAUGUGAGCUUUUUGCUCGUCUUAUAACCCGAUGACAGACCUUC [Anorin] (puzzle: Sensor v3, turn-off variant 1)
apparent KD of MS2 coat protein [2]: 14.2 nM
apparent KD of MS2 coat protein [3]: 266 nM
apparent KD of MS2 coat protein [4]: 13 nM

ACGUGGUGAGGAUAUGCACAAUACAAGAGUGUCAGAUCCGGACAUGAGGAUCACCCAUGUAGAAGGCACCCAAU [Eternabot (Original) Solution 10] (Eterna round: R97, puzzle: Exclusion 2)
apparent KD of MS2 coat protein (input ligand: FMN 200 uM): 41 nM
apparent KD of MS2 coat protein (input ligand: none): 50.8 nM

ACUAAUAGAGGAUAUACAGUUUAUUACAUGAGGAUCACCCAUGUUCUUCAAUGUAUAUAAGUAGAAGGCUAUGGAA [EX-5 Malc#4] (puzzle: Exclusion 5)
apparent KD of MS2 coat protein [3]: 56.9 nM

ACUAAUUGAGGAUAUACAAGAAUUAACAUGAGGAUCACCCAUGUUCUUAUUUGAAUUAAAGUAGAAGGCAGAAGAA [JR_Ex5_Sub063] (Eterna round: R97, puzzle: Exclusion 5)
apparent KD of MS2 coat protein (input ligand: FMN 200 uM): 16 nM
apparent KD of MS2 coat protein (input ligand: none): 28.9 nM

ACUAGAUGAGGAUAUACACAUUUUAGUGUUCCUCUAGAUUAACAUGAGGAUCACCCAUGUAGAAGGCAUCAUUU [Exclusion 2 - 10] (puzzle: Exclusion 2)
apparent KD of MS2 coat protein [3]: 80.8 nM

ACUAGAUGAGGAUAUGCACAUUUUAGUGUUCCUCUAGAUUAACAUGAGGAUCACCCAUGUAGAAGGCGUCAAUU [Exclusion 2 - 12] (puzzle: Exclusion 2)
apparent KD of MS2 coat protein [3]: 53.1 nM

ACUAGAUGAGGAUAUGCAUAUUUUCGUGUUCUUCUAGAUUAACAUGAGGAUCACCCAUGUAGAAGGCGUCAUUA [Exclusion 2 - 17] (puzzle: Exclusion 2)
apparent KD of MS2 coat protein [3]: 16.6 nM

ACUAGAUGAGGAUAUGCAUAUUUUCGUGUUCUUCUAGAUUAACAUGAGGAUCACCCAUGUAGAAGGCGUCUGGC [Exclusion 2 - 20] (puzzle: Exclusion 2)
apparent KD of MS2 coat protein [3]: 18 nM

ACUAGAUGAGGAUAUGCAUAUUUUCGUGUUCUUCUAGAUUAACAUGAGGAUCACCCAUGUAGAAGGCGUCUGGU [Exclusion 2 - 19] (puzzle: Exclusion 2)
apparent KD of MS2 coat protein [3]: 29.7 nM
